Reference: paper PMC12248025 (bioRxiv, 2025)
Several values for one entry are separate records, joined by “and”; a condition that tells them apart may be missing. Equal entries are not always repeated.

Target: the molecule itself
Assay: cryo-EM structure

B1: human IMPDH2 S160del (hIMPDH2-S160del) (enzyme)
chain: not shown
stoichiometry N: 4 and 8
